Reference: patent US20190022245A1 (ACADEMIA SINICA, published 2019)

Assays:
[1] = target: T1, BSA (control protein coated on ELISA plates) (UniProt P02769 25-607); experiment: ELISA, BSA-coated plate, graded concentrations
T1 construct: also called control BSA protein
Experimental: The anti-PEG binding specificity of BsAbs was measured by adding graded concentrations of PEG2×TAG72,PEG2×DNS, hCC49 scFv, h6.3Fab×EGFR or h6.3Fab×CD19 in 50 μL 2% skim milk to the mucin, BSA-PEG5000, NH₂-PEG₃ₖ-NH₂ or BSA coated plates at RT for 1 h. The plates were washed with PBS-T (PBS containing 0.05% Tween-20) three times. Rabbit anti-6×His (2 μg/mL) supplemented with HRP-conjugated goat anti-rabbit (2 μg/mL) or HRP-conjugated goat Ig anti human IgG Fab (2 μg/mL) (Jackson ImmunoResearch Laboratories, West Grove, Pa.) in 50 μL dilution buffer were added for 1 h at room temperature. The plates were washed with PBS-T (PBS containing 0.05% Tween-20) three times and with PBS two times. Bound peroxidase activity was measured by adding 150 μL/well ABTS substrate solution (BioLegend, San Diego, Calif.) for 30 min at room temperature. The absorbance (405 nm) of wells was measured in a microplate reader (Molecular Device, Menlo Park, Calif.).
Further, both h6-3Fab×EGFR and h6.3Fab×CD19 BsAbs bound to the NH₂-PEG_{10,000}-NH2, but not to the control BSA protein, indicating their binding specificity toward PEG molecule (FIGS. 14A and 14B). […] The PEG-binding kinetics of h6-3Fab×EGFR and h6.3Fab×CD19 BsAbs were verified by Microscale Thermophoresis (MST) (FIGS. 14D and 14E).

[2] = target: T2, epidermal growth factor receptor (EGFR) on cells (human (on human cell lines), UniProt P00533 25-1210); experiment: flow cytometry, BsAb on A431 cells then PEG-liposome Texas Red or PEG-Qdot655
T2 construct: whole, on cells
Experimental: PEG2×TAG72 or control PEG2×DNS BsAbs (10 μg/mL) were incubated with A-375(TAG72-), MCF-7(TAG72+), Jurkat (TAG72+) or OVCAR-3(TAG72+) cells at 4° C. for 30 min followed by FITC-labeled goat anti-human immunoglobulin second antibody (2 μg/m L) (Jackson ImmunoResearch Laboratories, West Grove, Pa.) or FITC-labeled 4arm-PEG (2 μg/mL). Tumor-specific targeting of PEGylated compounds was also examined by staining A431 (EGFR^high), and Raji (CD19^high) cell lines with 10 μg/mL of h6.3Fab×EGFR or h6.3Fab×CD19 BsAbs in PBS containing 0.05% BSA (staining buffer) at 4° C. for 30 min. The cells were washed with cold PBS for 3 times. PEG-Qdot655 (8 nM) (Invitrogen, Grand Island, N.Y.) or PEG-liposomal Texas-Red (100 nm size, 50 μM, lipid conc.) (FormuMax Scientific, Palo Alto, Calif.) in staining buffer was added to cells for 30 min at 4° C. […] After washing with cold PBS, the surface fluorescence of 10⁴ viable cells was measured by FACScaliber flow cytometer (Becton Dickinson, Mountain View, Calif., USA) then analyzed with Flowjo (Tree Star Inc., San Carlos, Calif., USA).
Further, both h6-3Fab×EGFR and h6.3Fab×CD19 BsAbs bound to the NH₂-PEG_{10,000}-NH2, but not to the control BSA protein, indicating their binding specificity toward PEG molecule (FIGS. 14A and 14B). […]

[3] = target: T3, human epidermal growth factor receptor (HER2) on cells (human, UniProt P04626 23-1255); experiment: flow cytometry on BT-474 cells
T3 construct: whole, on cells; also called HER2/Neu; Her2/neu

[4] = target: T3, human epidermal growth factor receptor …; experiment: culture medium on BT-474 cells (HER2 positive), FITC anti-human Ig
Experimental: (§1) The binding specificity of monovalent BsAbs with their target proteins was measured by collecting the culture medium of BsAbs producing cells, adding the collected medium to cells that expressed the target protein, then determining the binding by […]. After washing the cells, the bound BsAbs were detected by FITC-labeled goat anti-human immunoglobulin second antibody. […] Thus, monovalent anti-PEG (hE11) BsAbs bound to target cells in an antigen-dependent and selective manner.

[5] = target: T2, epidermal growth factor receptor (EGFR) …; experiment: culture medium on MDA-MB-468 cells (EGFR positive), FITC anti-human Ig
Experimental: as §1

[6] = target: T3, human epidermal growth factor receptor …; experiment: flow cytometry, 10 µg/ml BsAb, FITC anti-human IgG; also methoxy-PEG Qdot 655 retained at SKBR3 cells
[7] = target: T3, human epidermal growth factor receptor …; experiment: flow cytometry on SKBR3 cells (HER2+), FITC anti-human IgG

T1 sequence (P02769 25-607 limits assumed): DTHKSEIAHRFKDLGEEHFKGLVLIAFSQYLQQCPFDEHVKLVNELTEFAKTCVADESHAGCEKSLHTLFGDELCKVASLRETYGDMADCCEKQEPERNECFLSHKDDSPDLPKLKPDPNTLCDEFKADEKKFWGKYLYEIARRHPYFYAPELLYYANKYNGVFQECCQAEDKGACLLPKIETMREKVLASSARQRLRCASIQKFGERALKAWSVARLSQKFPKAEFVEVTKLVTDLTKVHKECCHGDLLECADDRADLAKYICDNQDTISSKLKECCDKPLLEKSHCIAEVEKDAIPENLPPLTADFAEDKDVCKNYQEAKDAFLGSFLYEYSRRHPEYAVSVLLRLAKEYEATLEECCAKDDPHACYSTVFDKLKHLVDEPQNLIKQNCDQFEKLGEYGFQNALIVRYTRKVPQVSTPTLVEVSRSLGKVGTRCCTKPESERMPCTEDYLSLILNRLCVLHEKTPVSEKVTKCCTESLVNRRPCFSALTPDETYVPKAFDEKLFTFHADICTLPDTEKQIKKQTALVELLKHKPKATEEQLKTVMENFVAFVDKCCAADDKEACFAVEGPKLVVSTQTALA

B1: h6.3 Fab × CD19 (monovalent anti-PEG (h6.3) anti-CD19 BsAb) (bispecific antibody)
light: DIVMTQSPDSLAVSLGERATINCKSSQSVLYSSNQMNYLAWYQQKPGQPPKLLIYWASTRESGVPDRFSGSGSGTDFTLTISSLQAEDVAVYYCLQYLSSWTFGGGTKLEIKTYSLSSTLTLSKADYEKHKLYACEVTHQGLSSPVTKSFNRGEC
heavy: QVQLVQSGSELKKPGASVKVSCKASGYTFKNYGMNWVRQAPGQGLEWMGWINTYTGQPIYANDFKGRFVFSLDTSVSTAYLQISSLKAEDTAVYYCARDWGPYWGQGTLVTVSSASTKGPSVFPLAPSSKSTSGGTAALGCLVKDYFPEPVTVSWNSGALTSGVHTFPAVLQSSGLYSLSSVVTVPSSSLGTQTYICNVNHKPSNTKVDKRVEPKSCDKVDLVTVSSASTGGGSGQLGGGGSQVQLQESGPGLVKPSQTLSLTCTVSGGSISTSGMGVGWIRQHPGKCLEWIGHIWWDDDKRYNPALKSRVTISVDTSKNQFSLKLSSVTAADTAVYYCARMELWSYYFDYWGQGTLVTVSSGGGGSGGGGSGGGGSEIVLTQSPATLSLSPGERATLSCSASSSVSYMHWYQQKPGQAPRLLIYDTSKLASGIPARFSGSGSGTDFTLTISSLEPEDVAVYYCFQGSVYPFTFGCGTKLEIKRTRHHHHHH
notes: Fab-dsFv; also called h6.3-hBU12
binding result [1]: no binding
binding result [2]: no binding (tested: 10 µg/mL)

B2: PEG2×HER2 (dimeric humanized anti-PEG (hE11) anti-HER2 BsAb) (bispecific antibody, human IgG1, kappa)
light: DVVMTQSPLSLPVTLGQPASISCRSSKSIVHSNGNTYLEWFQQRPGQSPRRLIYKVSKRMSGVPDRFSGSGSGTDFTLKISRVEAEDVGVYYCSQGSHVPPTFGGGTKVEIKRTVAAPSVFIFPPSDEQLKSGTASVVCLLNNFYPREAKVQWKVDNALQSGNSQESVTEQDSKDSTYSLSSTLTLSKADYEKHKLYACEVTHQGLSSPVTKSFNRGEC
heavy: not shown
notes: also called PEG2×HER2 BsAbs
binding result [3]: binds

B3: PEGxTAG72 (monovalent anti-PEG (hE11) Fab fused to anti-TAG72 scFv, example 2.1) (bispecific antibody)
light: B2 light
heavy: QVQLVQSGAEVKKPGASVKVSCKASGYTFTTYTMNWVRQAPGQGLEWMGYIIPSSGYVDYNQKFKGRVTMTRDTSTSTVYMELSSLRSEDTAVYYCVRSLDGYFWFAYWGQGTLVTVSSASTKGPSVFPLAPSSKSTSGGTAALGCLVKDYFPEPVTVSWNSGALTSGVHTFPAVLQSSGLYSLSSVVTVPSSSLGTQTYICNVNHKPSNTKVDKRVVDLVTVSSASTGGGSGQLGGGGSQVQLVQSGAEVKKPGASVKVSCKASGYTFTDHAIHWVRQAPGQCLEWMGYFSPGNDDFKYSQKFQGRVTITADKSASTAYMELSSLRSEDTAVYYCARSWIMQYWGQGTLVTVSSGGGGSGGGGSGGGGSDIVMTQSPDSLAVSLGERATINCKSSQSVLYSSNNKNYLAWYQQKPGQPPKLLIYWASTRESGVPDRFSGSGSGTDFTLTISSLQAEDVAVYYCQQYYSYPLTFGCGTKVEIKTRHHHHHH
notes: Tested as culture medium of producer cells; also called PEG×TAG72; monovalent anti-PEG (hE11) BsAb
binding result [4]: no binding
binding result [5]: no binding

B4: 15-2b knob/anti-HER2 hole (knob in hole anti-mPEG (h15-2b) anti-HER2 BsAb) (bispecific antibody)
light 1: DIQMTQSPSSLSASVGDRVTITCKASQDVNTSVAWYQQKPGKAPKLLIYWASTRHTGVPSRFSGSGSGTDFTFTISSLQPEDIATYYCLQYINYPYTFGQGTKLEIKRTVAAPSVFIFPPSDEQLKSGTASVVCLLNNFYPREAKVQWKVDNALQSGNSQESVTEQDSKDSTYSLSSTLTLSKADYEKHKLYACEVTHQGLSSPVTKSFNRGEC
heavy 1: not shown
light 2: QSVLTQPPSVSAAPGQKVTISCSGSSSNIGNNYVSWYQQLPGTAPKLLIYDHTNRPAGVPDRFSGSKSGTSASLAISGFRSEDEADYYCASWDYTLSGWVFGGGTKLTVLGSSASTKGPSVFPLAPSSKSTSGGTAALGCLVKDYFPEPVTVSWNSGALTSGVHTFPAVLQSSGLYSLSSVVTVPSSSLGTQTYICNVNHKPSNTKVDKKV
heavy 2: not shown
notes: Four different chains; also called h15-2b-knob/anti-HER2-hole; h15-2b-knob/anti-Her2-hole; not shown: HA tag fused at the N terminal of the hole heavy chain
binding result [6]: binds

B5: 15-2b knob/Bu12 hole (knob in hole anti-mPEG (h15-2b) anti-CD19 BsAb) (bispecific antibody)
light 1: B4 light 1
heavy 1: not shown
light 2: EIVLTQSPATLSLSPGERATLSCSASSSVSYMHWYQQKPGQAPRLLIYDTSKLASGIPARFSGSGSGTDFTLTISSLEPEDVAVYYCFQGSVYPFTFGQGTKLEIKRSSASTKGPSVFPLAPSSKSTSGGTAALGCLVKDYFPEPVTVSWNSGALTSGVHTFPAVLQSSGLYSLSSVVTVPSSSLGTQTYICNVNHKPSNTKVDKKV
heavy 2: not shown
notes: Four different chains; also called h15-2b-knob/BU12-hole; h15-2b knob+BU12-hole; not shown: HA tag fused at the N terminal of the hole heavy chain
binding result [7]: no binding (tested: 10 µg/ml)
